Positions count from the first letter of the chain named. No end group written: not given here.
Key:
[1] = target: T1, β‘WD40 domain (β‘-COPI) (Saccharomyces cerevisiae, UniProt P41811); assay: biochemical; assay type: binding, S. cerevisiae; conditions: pH 6.5
T1 construct: strep-Hisx6-SUMO (N, cleaved yes); made in house; host or cells: E. coli BL21(DE3)pLysS
T1 sequence (P41811 1-304 limits assumed): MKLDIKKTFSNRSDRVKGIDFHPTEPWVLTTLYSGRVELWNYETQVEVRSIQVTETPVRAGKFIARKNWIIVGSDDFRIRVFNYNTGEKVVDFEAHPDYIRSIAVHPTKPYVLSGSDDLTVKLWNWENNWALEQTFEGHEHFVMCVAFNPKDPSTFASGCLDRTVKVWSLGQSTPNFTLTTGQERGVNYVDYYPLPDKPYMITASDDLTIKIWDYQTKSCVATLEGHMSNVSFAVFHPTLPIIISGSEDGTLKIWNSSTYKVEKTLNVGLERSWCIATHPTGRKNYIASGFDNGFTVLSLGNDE

[2] = target: T2, αWD40 Arg13Ala mutant (Schizosaccharomyces pombe, UniProt Q96WV5, R13A); assay: biochemical; assay type: binding, S. pombe; conditions: pH 6.5
T2 construct: strep-tag (C); made in house; host or cells: Expi293 cells
T2 sequence (Q96WV5 1-327 R13A limits assumed): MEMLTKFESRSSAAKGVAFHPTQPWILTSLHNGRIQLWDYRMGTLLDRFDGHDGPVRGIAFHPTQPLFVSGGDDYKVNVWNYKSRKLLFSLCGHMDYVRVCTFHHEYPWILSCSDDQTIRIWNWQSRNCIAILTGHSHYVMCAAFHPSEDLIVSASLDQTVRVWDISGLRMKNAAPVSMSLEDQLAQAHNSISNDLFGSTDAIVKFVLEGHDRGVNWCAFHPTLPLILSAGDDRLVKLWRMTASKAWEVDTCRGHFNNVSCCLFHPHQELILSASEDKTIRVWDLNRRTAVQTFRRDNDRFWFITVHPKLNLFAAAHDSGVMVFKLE

[3] = target: T3, αWD40 Arg300Ala mutant (Schizosaccharomyces pombe, UniProt Q96WV5, R300A); assay: biochemical; assay type: binding, S. pombe; conditions: pH 6.5
T3 construct: strep-tag (C); made in house; host or cells: Expi293 cells
T3 sequence (Q96WV5 1-327 R300A limits assumed): T2 sequence (Q96WV5 1-327 R13A limits assumed) with A13R, R300A

[4] = target: Thr1273Glu clientized S tail 21mer peptide (BLI) (SARS-CoV-2); assay: BLI; pH 7
[5] = target: amidated clientized Thr1273Glu S heptapeptide (SARS-CoV-2); assay: BLI; […]; pH 6.5 ([…]; 25 °C; Octet RED96; […]
[6] = target: Thr1273Glu clientized S tail 21mer peptide (BLI) (SARS-CoV-2); assay: BLI; […]; pH 6.5 ([…]; 25 °C; Octet RED96; […]
[7] = target: clientized GST-S tail fusion, Thr1273Glu (SARS-CoV-2); assay: pull-down
[8] = target: clientized GST-S tail fusion, Thr1273Asp (SARS-CoV-2); assay: pull-down
[9] = target: wild-type SARS-CoV-2 S tail heptapeptide (1267Gly-Val-Lys-Leu-His-Tyr-Thr1273) (SARS-CoV-2); assay: BLI; […]; pH 6.5 ([…]; 25 °C; Octet RED96; […]
[10] = target: clientized Thr1273Glu SARS-CoV-2 S tail heptapeptide (1267Gly-Val-Lys-Leu-His-Tyr-Glu1273) (SARS-CoV-2); assay: BLI; […]; pH 6.5 ([…]; 25 °C; Octet RED96; […]
[11] = target: T4, S. cerevisiae β‘-COPI WD40 domain (β‘WD40), wild type (S. cerevisiae, UniProt P41811 1-301); assay: BLI; […]; pH 6.5 ([…]; 25 °C; Octet RED96; […]; conditions: both partners purified
T4 sequence: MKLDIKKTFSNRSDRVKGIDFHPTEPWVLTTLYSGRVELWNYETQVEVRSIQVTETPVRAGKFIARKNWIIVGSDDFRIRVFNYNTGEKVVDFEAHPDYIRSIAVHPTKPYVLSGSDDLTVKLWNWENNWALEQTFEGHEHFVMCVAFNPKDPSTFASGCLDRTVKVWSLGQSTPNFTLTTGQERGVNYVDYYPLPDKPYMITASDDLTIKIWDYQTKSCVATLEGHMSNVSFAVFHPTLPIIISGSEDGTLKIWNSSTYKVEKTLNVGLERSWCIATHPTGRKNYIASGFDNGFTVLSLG

GVKLHYE [GVKLHYE]
koff [1]: 1.27 ± 0.03 s⁻¹
koff [2]: 0.22 ± 0.008 s⁻¹
koff [3]: 0.43 ± 0.003 s⁻¹

GVKLHYT [GVKLHYT]
koff [2]: 0.38 ± 0.007 s⁻¹
koff [3]: 0.81 ± 0.007 s⁻¹

S. pombe α-COPI WD40 domain (αWD40), wild type (domain or fragment)
Kd [4]: 100 nM
Kd [5]: 2300 nM
Kd [6]: 100 nM

endogenous coatomer complex (mouse liver cytosol) (from UniProt Q8CIE6 1-1224; Q9JIF7 1-953; O55029 1-905; Q9QZE5 1-874; Q5XJY5 1-511; O89079 1-308; P61924 1-177)
fold binding over the Lys-x-Lys-x-xCT dibasic mutant [7]: 2 fold
fold binding over the wild-type GST-S tail construct [7]: 17 fold
fold binding over the Lys-x-Lys-x-xCT dibasic mutant [8]: 2 fold
fold binding over the wild-type GST-S tail construct [8]: 17 fold

αWD40 Arg13Ala mutant (domain or fragment)
Kd [9]: 8500 nM
koff [9]: 0.38 s⁻¹
kon [9]: 148000 M⁻¹ s⁻¹
Kd [10]: 3000 nM
koff [10]: 0.22 s⁻¹
kon [10]: 132000 M⁻¹ s⁻¹

αWD40 Arg300Ala mutant (domain or fragment)
Kd [9]: 3600 nM
koff [9]: 0.81 s⁻¹
kon [9]: 360000 M⁻¹ s⁻¹
Kd [10]: 4200 nM
koff [10]: 0.43 s⁻¹
kon [10]: 137000 M⁻¹ s⁻¹

B1: clientized Thr1273Glu SARS-CoV-2 S tail heptapeptide (1267Gly-Val-Lys-Leu-His-Tyr-Glu1273) (peptide)
peptide: GVKLHYE
notes: also called GVKLHYE; clientized S heptapeptide
Kd [11]: 2300 ± 230 nM
koff [11]: 1.27 s⁻¹
kon [11]: 2.42e+06 M⁻¹ s⁻¹

Reference: article PMC10724246 (Nature Communications, 2023)
